Consider three molecules from US20250277196A1, “EPSPS MUTANTS AND METHOD OF ITS USES” (CROPEDIT BIOTECHNOLOGY INC., priority 2021, published 2025).

Assay [1] relates to E. coli lacking EPSPS. As to the kind of experiment: Resistance test of soybean EPSPS mutant and comparison with wild type (FIG. 4). Format: cell-based. The conditions noted are these: 0.5 mM glyphosate. From the text:
According to the wild-type sequence information of soybean (Glycine max) EPSPS (SEQ ID NO:36), the gene was synthesized and inserted into the vector pKED2 to obtain the vector GmWt. The V403 site of GmWt was mutated to A by PCR, and the vector GmVA expressing the soybean EPSPS mutant protein containing the V403A mutation was obtained. The specific experimental steps were as following:
(§1) a) PCR system: According to the primer and template mixed PCR system corresponding to the target vector in the above table, the forward primer was 1.25 μl, the reverse primer was 1.25 μl, the template plasmid was 2 μl, the Q5 PCR master mix was 12.5 μl, and ddH2O was […].
(§2) b) PCR reaction conditions were as follows: the annealing temperature was set according to the annealing temperature corresponding to the target carrier in the above table.
(§3) c) Took out 5 μl of the obtained PCR product and added it to the loading buffer for agarose gel electrophoresis. A band with a size of about 4.5 kb was considered successful.
(§4) d) Used NEB's KLD enzyme mixture to remove the template and connected the PCR product. The connection system was 5 μl KLD buffer, 1 μl KLD MIX, 1 μl PCR product, and ddH2O 3 μl. After ligating at room temperature for 5 min, transformed it into E. coli.
(§5) e) The ligation product was transformed into Dh5a competent E. coli lacking EPSPS. […]

The subject of assay [2] is T1 generation transgenic rice. Nature of the assay: Glyphosate resistance of T1 generation transgenic rice seedlings (FIG. 10). Type of assay: in vivo. As to conditions: 100 ppm glyphosate aqueous solution (Roundup), cultivated 10 days; wild-type rice control significantly inhibited and died. From the text:
The rice seed used in this example is RICE KENG XIANG DA008-169, which is publicly available.
Nucleic acid sequence encoding OsGPV mutants (comprising G172A, P177S and V403A) (SEQ ID NO:6) were inserted into the plant expression vector according to the conventional methods to obtain the pk510 vector expressing the OsGPV gene. (see FIG. 9)
1) The transgenic vector pk510 was introduced into Agrobacterium EHA105 to obtain recombinant Agrobacterium.
2) One to five days before the transformation experiment, recombinant Agrobacterium was inoculated on YEB solid medium containing 50 mg/L kanamycin and 15 mg/L rifampicin. The medium was sealed in the dish with 3M tape; kept at temperature at 28° C. in an inverted dish orientation and cultured it in dark for one to five days.
3) The bacteria was scraped at the “Z”-shaped tail with the inoculation ring, and gently suspended in […] NB liquid medium containing 2 mg/L 2,4-dichlorophenoxyacetic acid to make the concentration of the bacteria liquid reach approximately O.D. 600=0.1, and then reserve the make Agrobacterium infection solution.
4) After removing the rice seed coat, the rice seed was placed in a triangular flask, washed 3 times with sterile water. 75% alcohol was added to immerse the seeds, shaken gently for 1 min, and the alcohol discarded. […]

The test system of assay [3] is E. coli lacking EPSPS. As to the kind of experiment: Glyphosate resistance comparison among rice EPSPS mutants: growth of transformed E. coli on M9 medium with different glyphosate concentrations. Format: cell-based, Escherichia coli. How it is done:
as §1
b) PCR reaction conditions were as following: the annealing temperature was set according to the annealing temperature corresponding to the target carrier in the above table.
as §3, §4
e) The ligation product was transformed into Dh5a competent E. coli lacking EPSPS. After resuscitation, the cells were washed twice with M9 medium, and then the washed cells were spread on M9 medium and cultured for 48 h. Sequenced the grown single colony (Tsingke Biological Technology Co., Ltd.), and selected the correct mutant to save for future use.
OsWt represents the wild type rice EPSPS(SEQ ID NO:2). […] OsGA represents the mutated rice EPSPS with mutation G172A. (SEQ ID NO:7) OsPS represents the mutated rice EPSPS with mutation P177S. (SEQ ID NO:8) OsGAPS represents the mutated rice EPSPS with mutation G172A and P177S. (SEQ ID NO:9) OsGAVA represents the mutated rice EPSPS with mutation G172A and V403A(SEQ ID NO:4). OsPSVA represents the mutated rice EPSPS with mutation P177S and V403A(SEQ ID NO:5). OsGPV represents the mutated rice EPSPS with mutation G172A, P177S and V403A(SEQ ID NO:6). OsTIPS represents the mutated rice EPSPS with mutation T173I and P177S. (SEQ ID NO: 35). OsTIPT represents the mutated rice EPSPS with mutation T173I and P177T. (SEQ ID NO:36). OsTIPSVA represents the mutated rice EPSPS with mutation T173I, P177S and V403A. (SEQ ID NO:37). OsTIPTVA represents the mutated rice EPSPS with mutation T173I, P177T and V403A. (SEQ ID NO:38). CP4 represents the wild type EPSPS from Agrobacterium tumefaciens. (SEQ ID NO:39)
Each product obtained from the above steps were transformed into E. coli lacking EPSPS. By detecting the growth of the transformed Escherichia coli on M9 medium containing different glyphosate concentrations (0 mM, 0.5 mM, 2 mM, 4 mM, 5 mM, 25 mM, 75 mM, 100 mM), the 1 mM glyphosate here was equivalent to […] glyphosate acid, the glyphosate resistance of rice EPSPS mutants was verified.

For assay [4], the system named is E. coli lacking EPSPS. As to the kind of experiment: Resistance test of wheat EPSPS mutant and comparison with wild type (FIG. 4). Type of assay: cell-based. As to conditions: 0.2 mM glyphosate.
From the text: The gene was synthesized according to the V403A mutant sequence information (SEQ ID NO:32) of the EPSPS gene on chromosome 7 of the wheat A genome and inserted into the vector pKED2 to obtain the wheat (Triticum vulgare) EPSPS mutant expression vector TaVA containing the V403A mutation. The A403 site of TaVA was mutated back to V by PCR, and a TaWt vector expressing the EPSPS wild-type gene on chromosome 7 of wheat A genome was obtained.
as §1, §2, §3
d) Used NEB's KLD enzyme mixture to remove the template and then connected the PCR product. The connection system was 5 μl KLD buffer, 1 μl KLD MIX, 1 μl PCR product, and ddH2O 3 μl. After ligating at room temperature for 5 min, transformed it into E. coli.
as §5

B1: GmVA (protein)
DNA: MAAAEKPSTAPEIVLEPIKDISGTITLPGSKSLSNRILLLAALSEGTTVVDNLLYSEDIHYMLGALRTLGLRVEDDQTTKQAIVEGCGGLFPTIKESKDEINLFLGNAGTAMRPLTAAVVAAGGNASYVLDGVPRMRERPIGDLVAGLKQLGADVDCFLGTNCPPVRVNGKGGLPGGKVKLSGSISSQYLTALLMAAPLALGDVEIEIVDKLISVPYVEMTLKLMERFGVSVEHSGNWDKFLVHGGQKYKSPGNAFVEGDASSASYFLAGAAVTGGTITVNGCGTNSLQGDVKFAEVLEKMGAKVTWSENSVTVTGPPQDSSGQKVLQGIDVNMNKMPDAAMTLAVVALFANGQTAIRDVASWRVKETERMIAICTELRKLGATVEEGPDYCVITPPEKLNVTAIDTYDDHRMAMAFSLAACGDVPVTIKDPGCTRKTFPDYFEVLERFTRH
modifications: This sequence is synthesized in lab.
For B1, in the assay on E. coli lacking EPSPS [1], the “growth status compared with GmWt” value is on record as “significantly higher than that of GmWt”.

B2: OsGPV: mutated rice EPSPS with mutation G172A, P177S and V403A (SEQ ID NO:6) (protein)
chain: MAAKAEEIVLQPIREISGAVQLPGSKSLSNRILLLSALSEGTTVVDNLLNSEDVHYMLEALKALGLSVEADKVAKRAVVVGCGGKFPVEKDAKEEVQLFLGNAATAMRSLTAAVTAAGGNATYVLDGVPRMRERPIGDLVVGLKQLGADVDCFLGTECPPVRVKGIGGLPGGKVKLSGSISSQYLSALLMAAPLALGDVEIEIIDKLISIPYVEMTLRLMERFGVKAEHSDSWDRFYIKGGQKYKSPGNAYVEGDASSASYFLAGAAITGGTVTVQGCGTTSLQGDVKFAEVLEMMGAKVTWTDTSVTVTGPPREPYGKKHLKAVDVNMNKMPDAAMTLAVVALFADGPTAIRDVASWRVKETERMVAIRTELTKLGASVEEGPDYCIITPPEKLNITAIDTYDDHRMAMAFSLAACADVPVTIRDPGCTRKTFPNYFDVLSTFVRN
modifications: This sequence is synthesized in lab.
As to B2, the “growth of transgenic rice seedlings in glyphosate solution” value in assay [2] is “not significantly affected”. Moreover, in the assay with E. coli lacking EPSPS [3] (100 mM glyphosate medium, FIG. 2), the “glyphosate resistance compared with CP4 EPSPS” value is given as “comparable”. The “glyphosate concentration of the medium on which the strain can grow” value in the assay with E. coli lacking EPSPS [3] (M9 medium, tested 0, 0.5, 2, 4, 5, 25, 75, 100 mM glyphosate, FIG. 2, FIG. 3) is recorded as 100 mM.

B3: TaVA (protein)
DNA: MAGAEEVVLQPIREISGAVQLPGSKSLSNRILLLSALSEGTTVVDNLLNSEDVHYMLEALEALGLSVEADKVAKRAVVVGCGGRFPVEKDAKEEVKLFLGNAGTAMRPLTAAVVAAGGNATYVLDGVPRMRERPIGDLVVGLQQLGADVDCFLGTNCPPVRINGKGGLPGGKVKLSGSISSQYLSSLLMAAPLALEDVEIEIIDKLISVPYVEMTLKLMEHFGVTAEHSDSWDRFYIKGGQKYKSPGNAYVEGDASSASYFLAGAAITGGTVTVEGCGTTSLQGDVKFAEVLEMMGAKVTWTDTSVTVTGPPRQPFGRKHLKAVDVNMNKMPDAAMTLAVVALFADGPTAIRDVASWRVKETERMVAIRTELTKLGATVEEGPDYCIITPPEKLNITAIDTYDDHRMAMAFSLAACAEVPVTIRDPGCTRKTFPNYFDVLSTFVKN
modifications: This sequence is synthesized in lab.
Take B3: the “growth state compared with TaWt” value in the assay with E. coli lacking EPSPS [4] is “significantly higher than that of TaWt”.
